Source: publication PMC12597282

Target: E546N mutant human inducible NOS oxygenase/FMN (oxyFMN) construct (human) (UniProt P35228)
Test: cross-linking; DSBU 250 uM with 5 uM iNOS oxyFMN (co-purified with CaM), 20 mM HEPES, 100 mM NaCl, 1 mM CaCl2, pH 7.5, 30 min, room temperature; SDS-PAGE, dimeric band digested in gel; LC-MS/MS on timsTOF (DDA-PASEF, then PRM-PASEF for quantitation), lysine-lysine cross-links only

Chain of UniProt P35228 (P35228 71-723 E546N): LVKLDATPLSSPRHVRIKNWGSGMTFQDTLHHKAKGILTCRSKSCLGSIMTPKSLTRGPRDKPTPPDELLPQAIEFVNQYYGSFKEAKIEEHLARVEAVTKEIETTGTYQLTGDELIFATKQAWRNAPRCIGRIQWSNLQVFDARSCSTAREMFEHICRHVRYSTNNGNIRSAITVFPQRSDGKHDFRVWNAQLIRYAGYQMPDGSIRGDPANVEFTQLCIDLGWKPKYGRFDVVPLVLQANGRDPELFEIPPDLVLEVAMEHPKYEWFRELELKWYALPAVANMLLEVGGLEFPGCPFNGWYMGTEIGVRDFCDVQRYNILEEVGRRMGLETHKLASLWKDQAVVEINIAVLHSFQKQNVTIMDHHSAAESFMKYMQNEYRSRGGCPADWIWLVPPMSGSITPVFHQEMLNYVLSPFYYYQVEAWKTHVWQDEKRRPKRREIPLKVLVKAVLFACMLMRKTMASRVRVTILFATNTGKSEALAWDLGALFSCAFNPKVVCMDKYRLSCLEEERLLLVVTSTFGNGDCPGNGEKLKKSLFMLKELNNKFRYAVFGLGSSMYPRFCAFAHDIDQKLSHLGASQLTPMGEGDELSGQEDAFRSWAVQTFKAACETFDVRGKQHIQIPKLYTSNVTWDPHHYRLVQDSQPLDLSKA

log2 fold-change (E546N/wt) of the abundance of cross-link 75–516 CaM-helix (intra) (log2(E546N/wt)): -1.04
Substance: calmodulin (from UniProt P0DP23 1-149) (natural protein)
